Results published in patent US20260098102A1 (NATIONAL UNIVERSITY CORPORATION KOBE UNIVERSITY, published 2026).
Like-named read-outs stand apart in the source and are kept apart here.

T1: monkey SIRPA protein (cynomolgus monkey, UniProt P78324 31-504 (human entry))
T1 construct: Expressed on 293α cells from pcDNA3.2 V5-DEST or pFLAG V5-DEST vectors; also called cynomolgus monkey SIRPA; cSIRPA
T1 chain: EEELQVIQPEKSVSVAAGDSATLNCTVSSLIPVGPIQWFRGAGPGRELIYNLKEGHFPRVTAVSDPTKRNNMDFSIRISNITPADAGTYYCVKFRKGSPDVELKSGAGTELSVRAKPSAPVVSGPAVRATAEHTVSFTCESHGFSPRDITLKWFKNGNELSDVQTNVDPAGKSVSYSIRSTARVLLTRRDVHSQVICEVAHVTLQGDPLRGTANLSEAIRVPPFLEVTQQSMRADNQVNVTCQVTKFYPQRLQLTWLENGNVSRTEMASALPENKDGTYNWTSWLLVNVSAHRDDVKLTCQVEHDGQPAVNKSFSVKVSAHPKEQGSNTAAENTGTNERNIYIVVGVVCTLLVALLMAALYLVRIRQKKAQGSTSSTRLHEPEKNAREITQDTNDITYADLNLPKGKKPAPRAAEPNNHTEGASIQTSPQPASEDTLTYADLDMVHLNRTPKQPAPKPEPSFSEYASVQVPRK


What was measured:
[1] = molecular target: T2, SIRPA_V1_IgV (human, UniProt P78324 31-149); assay: SPR Biacore T200, antibody captured, SIRPA_V1_IgV as analyte, 1:1 model
T2 construct: Secreted recombinant protein from FreeStyle 293F cells
Method: The dissociation constants of the cD13, cF44, and cF63 prepared in Example 4 against the human SIRPA_V1_IgV prepared in Example 1 were determined by a capture method comprising capturing a human chimeric antibody as a ligand and measuring an antigen as an analyte, using Biacore T200 (GE Healthcare Bioscience Corp.). HBS-EP+ (GE Healthcare Bioscience Corp.) was used as a running buffer, and CM5 (GE Healthcare Bioscience Corp.) was used as a sensor chip. In an amount of 1 μg/mL human chimeric antibody was added onto a chip at a rate of 10 μL/min for 60 seconds, a serially diluted solution of human SIRPA protein as an antigen (0.5 to 8 μg/mL) was added at a flow rate of 30 μL/min for 120 seconds, and the dissociation phase continued to be monitored for 600 seconds. As a regenerant, 3 M magnesium chloride (GE Healthcare Bioscience Corp.) was added at a flow rate of 20 μL/min for 30 seconds. For data analysis, the binding rate constant (ka), dissociation rate constant (kd), and dissociation constant (KD; KD=kd/ka) were calculated using a 1:1 binding model.

[2] = molecular target: T3, human SIRPA_V1 protein (human, UniProt P78324 31-504); assay: cell-based ELISA on 293α cells expressing FLAG-tagged SIRPA_V1; Abs 490 normalized to FLAG tag
T3 construct: Expressed on 293α cells from pcDNA3.2 V5-DEST or pFLAG V5-DEST (FLAG-tagged) vectors; also called human SIRPA Variant 1; hSIRPA V1
Method: (§1) The 293α cells [described in Example 1)-6] were prepared in a 10% FBS-containing DMEM medium to 5×10⁵ cells/mL. pFLAG V5-DEST-SIRPA_V1, pFLAG V5-DEST-SIRPA_V2, or pFLAG V5-DEST was introduced into the cells using Lipofectamine LTX (Invitrogen), followed by addition of 100 μL per well to a 96-well plate (Corning Incorporated), and cells were cultured overnight in the 10% FBS-containing DMEM medium at 37° C. under a 5% CO₂ condition. The obtained introduced cells were used for cell-based ELISA in a state that they adhered to each other. After the culture supernatant was removed, 50 μL per well of the cD13 (IgG2 and IgG4pf), cF44 (IgG1, IgG2, IgG4p, and IgG4pf), and cF63 (IgG2 and IgG4pf) antibodies prepared in Examples 3 and 4 were added to each of pFLAG V5-DEST-SIRPA_V1, pFLAG V5-DEST-SIRPA_V2, or pFLAG V5-DEST-introduced cells at final concentrations of 0 to 10,000 ng/mL, and the mixture was allowed to stand at 4° C. for one hour. Further, 50 μL per well of anti-FLAG M2 antibody (SIGMA) diluted with 5% FBS-containing PBS to a final concentration of 10,000 ng/mL was added to a well for detecting expression of each SIRPA construct, and the mixture was allowed to stand at 4° C. for one hour. The cells in the well were washed once with 5% FBS-containing PBS, followed by addition of Peroxidase AffiniPure F(ab′)₂ Fragment Goat Anti-Human IgG, Fcγ Fragment Specific (Jackson ImmunoResearch) diluted 1000-fold with 5% FBS-containing PBS, and the mixture was allowed to stand at 4° C. for one hour. The cells in the well were washed five times with 5% FBS-containing PBS, followed by addition of 100 μL per well of an OPD coloration solution [o-phenylenediamine dihydrochloride (Wako Pure Chemical Industries, Ltd.) and H₂O₂ were dissolved in an OPD solution (0.05 M trisodium citrate, 0.1 M disodium hydrogen phosphate dodecahydrate, pH 4.5) at 0.4 mg/mL and 0.6% (v/v), respectively]. A coloration reaction was performed with stirring occasionally, 100 μL per well of 1 M HCl was added to terminate the coloration reaction, and then absorbance at 490 nm was measured with a plate reader ARVO (PerkinElmer Inc.). Binding of the human chimeric anti-human SIRPA antibodies to each construct was standardized by expression of the FLAG tag.
Target sequence in this assay (P78324 31-504 limits assumed): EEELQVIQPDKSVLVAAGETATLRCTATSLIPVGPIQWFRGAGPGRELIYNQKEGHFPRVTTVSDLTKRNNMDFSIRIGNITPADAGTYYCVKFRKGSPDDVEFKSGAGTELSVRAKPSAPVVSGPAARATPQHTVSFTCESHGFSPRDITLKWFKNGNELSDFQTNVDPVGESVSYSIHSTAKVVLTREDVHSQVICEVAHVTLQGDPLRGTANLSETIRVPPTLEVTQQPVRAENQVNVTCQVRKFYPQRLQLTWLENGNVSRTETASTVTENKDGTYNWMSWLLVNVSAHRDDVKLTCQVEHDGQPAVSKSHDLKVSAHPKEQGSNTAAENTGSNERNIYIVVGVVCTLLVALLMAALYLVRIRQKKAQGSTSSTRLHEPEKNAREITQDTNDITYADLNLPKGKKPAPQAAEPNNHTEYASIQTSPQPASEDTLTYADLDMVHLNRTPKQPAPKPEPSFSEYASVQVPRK

[3] = molecular target: T1, monkey SIRPA protein; assay: cell-based ELISA on 293α cells expressing FLAG-tagged monkey SIRPA; Abs 490 normalized to FLAG tag
[4] = molecular target: T3, human SIRPA_V1 protein; assay: blocking cell-based ELISA: peroxidase-labeled CD47-Fc (10,000 ng/mL) on 293α cells expressing SIRPA_V1; y axis = CD47-Fc signal in % of no antibody [i]
Method: (§2) After the culture supernatant of the human SIRPA and monkey SIRPA expression vector-introduced 293α cells prepared in Examples 5)-1 and 5)-2, respectively, was removed, 50 μL per well of cD13 (IgG2 and IgG4pf), cF44 (four different constant regions IgG1, IgG2, IgG4p, and IgG4pf), and cF63 (IgG2 and IgG4pf) diluted with 5% FBS-containing PBS to final concentrations of 0 to 10,000 ng/mL were added to each of pcDNA3.2 V5-DEST-SIRPA_V1, pcDNA3.2 V5-DEST-monkey SIRPA, and pcDNA3.2 V5-DEST-introduced 293α cells, immediately followed by addition of 50 μL per well of peroxidase-labeled CD47-Fc prepared in 5% FBS-containing PBS at a final concentration of 10,000 ng/ml, and the mixture was allowed to stand at 4° C. for one hour. Thereafter, the SIRPA-CD47 binding inhibitory activity was evaluated in the same manner as in 1)-6-3.

[5] = molecular target: T4, human SIRPA_V2 protein (human, UniProt P78324 31-504); assay: blocking cell-based ELISA: peroxidase-labeled CD47-Fc (10,000 ng/mL) on 293α cells expressing SIRPA_V2; y axis = CD47-Fc signal in % of no antibody [ii]
T4 construct: Expressed on 293α cells from pcDNA3.2 V5-DEST or pFLAG V5-DEST (FLAG-tagged) vectors; also called human SIRPA Variant 2; ECD variant (full-length, amino acids 1 to 504)

[6] = molecular target: T4, human SIRPA_V2 protein; assay: cell-based ELISA on 293α cells expressing FLAG-tagged SIRPA_V2; Abs 490 normalized to FLAG tag
Method: as §1
Target sequence in this assay (P78324 other isoform, or with tags, fused parts or gaps limits assumed): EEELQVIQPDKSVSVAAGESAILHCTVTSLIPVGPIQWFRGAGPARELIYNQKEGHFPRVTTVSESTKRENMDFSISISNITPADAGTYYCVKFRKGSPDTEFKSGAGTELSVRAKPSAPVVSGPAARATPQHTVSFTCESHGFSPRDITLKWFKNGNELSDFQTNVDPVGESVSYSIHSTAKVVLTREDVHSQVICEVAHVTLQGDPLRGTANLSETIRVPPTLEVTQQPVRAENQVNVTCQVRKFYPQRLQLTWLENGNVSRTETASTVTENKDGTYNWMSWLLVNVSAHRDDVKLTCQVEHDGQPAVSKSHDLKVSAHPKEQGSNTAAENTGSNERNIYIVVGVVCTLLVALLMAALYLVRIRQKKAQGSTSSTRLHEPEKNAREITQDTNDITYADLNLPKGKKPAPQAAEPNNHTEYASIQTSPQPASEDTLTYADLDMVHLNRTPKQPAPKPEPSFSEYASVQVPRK

[7] = molecular target: T3, human SIRPA_V1 protein; assay: blocking cell-based ELISA: peroxidase-labeled CD47-Fc (10,000 ng/mL) on 293α cells expressing SIRPA_V1; y axis = CD47-Fc signal in % of no antibody [i]; remark: listed apart in the source
Method: as §2
Target sequence in this assay (P78324 31-504 limits assumed): as the sequence (P78324 31-504 limits assumed) above

[8] = molecular target: T4, human SIRPA_V2 protein; assay: blocking cell-based ELISA: peroxidase-labeled CD47-Fc (10,000 ng/mL) on 293α cells expressing SIRPA_V2; y axis = CD47-Fc signal in % of no antibody [ii]; remark: listed apart in the source

T2 sequence (P78324 other isoform, or with tags, fused parts or gaps limits assumed): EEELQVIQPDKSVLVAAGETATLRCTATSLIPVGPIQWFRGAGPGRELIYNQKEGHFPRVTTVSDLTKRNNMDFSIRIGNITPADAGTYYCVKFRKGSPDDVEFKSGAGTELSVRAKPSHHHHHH

Kd [1] | EC50 (read off the curve) [2] | EC50 (read off the curve) [3] | IC50 (read off the curve) [4] | IC50 (read off the curve) [5] | EC50 (read off the curve) [6] | IC50 (read off the curve) [7] | IC50 (read off the curve) [8] | Binder
0.166 nM | ~0.05 µg/mL | ~0.09 µg/mL | ~0.1 µg/mL | ~0.2 µg/mL |  |  |  | human chimeric anti-SIRPA antibody cF63 (antibody, human IgG4 S228P, lambda, F234A L235A, V domains shown, Human IgG4proFALA heavy chain, human lambda light chain; also called cF63 (IgG4pf); human chimeric antibody F63) VH: QVQLKESGPGLVQPSETLSLTCTVSGFSLASYSLSWVRQPSGKGPEWMGRMYYDGDTAYNSALKSRLSISRDTSKNQVFLKMNSLQTDDTGTYYCTRDRSMFGTDYPHWYFDFWGPGTMVTVSS VL: QFTLTQPKSVSGALRSTITIPCERSSGDIGDSYVSWYQRHLGRPPINVIYADDQRPSEVSDRFSGSIDSSSNSASLTITNLQMDDEADYFCQSYDSKIDIFGGGTKLTVLG
1.72 nM | ~0.05 µg/mL | ~0.08 µg/mL | ~0.6 µg/mL | ~0.4 µg/mL | ~0.05 µg/mL | ~0.6 µg/mL | ~0.4 µg/mL | human chimeric anti-SIRPA antibody cF44 (antibody, human IgG4 S228P, kappa, F234A L235A, V domains shown, Human IgG4proFALA heavy chain, human kappa light chain; also called cF44 (IgG4pf); human chimeric antibody F44) VH: EVQLVESGGGLVQPGRSLKLSCAASGFTFSNYYMAWVRQAPTKGLEWVTYITTGGGSTYFRDSVKGRFTISRDNAESTLYLQMDSLRSEDTATYYCTAANYGGSYFDYWGQGVMVTVSS VL: DVQMTQSPSNLAASPGESVSINCKASKSISKYLAWYQQKPGKANKLLIYSGSTLQSGTPSRFSGSGSGTDFTLTIRNLEPEDFGLYYCQQHNEYPPTFGAGTKLELKR
